Experimental data reported in IntAct's records for PubMed 23177925.

B1: Cell division control protein 13 (Saccharomyces cerevisiae), P32797 (parent)
chain: MDTLEEPECPPHKNRIFVSSSKDFEGYPSKAIVPVQFVALLTSIHLTETKCLLGFSNFERRGDQSQEDQYLIKLKFKDRGSERLARITISLLCQYFDIELPDLDSDSGASPTVILRDIHLERLCFSSCKALYVSKHGNYTLFLEDIKPLDLVSVISTISTKSTNSSKHSSSELISECDLNNSLVDIFNNLIEMNRDEKNRFKFVKLIHYDIELKKFVQDQQKVLSQKSKAAAINPFFVPNRLGIPYIESQNEFNSQLMTLNVDEPTTDISNMGEEMHDSADPIEDSDSSTTSSTGKYFSSKSYIQSQTPERKTSVPNNWHDDDSGSKRKRKLSFHSPNASSIRKAISYEQLSLASVGSVERLEGKIVGMNPPQFASINEFKYCTLKLYFTQLLPNVPDKVLVPGVNCIEIVIPTRERICELFGVLNCQSDKISDILLLEKPDRISVEVERILWDNDKTASPGMAVWSLKNISTDTQAQAQVQVPAQSSASIDPSRTRMSKMARKDPTIEFCQLGLDTFETKYITMFGMLVSCSFDKPAFISFVFSDFTKNDIVQNYLYDRYLIDYENKLELNEGFKAIMYKNQFETFDSKLRKIFNNGLRDLQNGRDENLSQYGIVCKMNIKVKMYNGKLNAIVRECEPVPHSQISSIASPSQCEHLRLFYQRAFKRIGESAISRYFEEYRRFFPIHRNGSHLAKLRFDEVKHEPKKSPTTPALAEHIPDLNADVSSFDVKFTDISSLLDSSARLPRPQQTHKSNTLYSCEGRIIAIEYHASDLCFHITNELPLLQTRGLAPERVLQLHIITSKNFAYFFNRSSAYLQRQPLEEKYTQLAQFLGHSFKFNITSSLTLFPDTTVALQIWCPIECTFRELQQQLAHPKVAAAPDSGSLDCAINATVNPLRLLAAQNGVTVKKEEDNDDDAGAVPTS
partner: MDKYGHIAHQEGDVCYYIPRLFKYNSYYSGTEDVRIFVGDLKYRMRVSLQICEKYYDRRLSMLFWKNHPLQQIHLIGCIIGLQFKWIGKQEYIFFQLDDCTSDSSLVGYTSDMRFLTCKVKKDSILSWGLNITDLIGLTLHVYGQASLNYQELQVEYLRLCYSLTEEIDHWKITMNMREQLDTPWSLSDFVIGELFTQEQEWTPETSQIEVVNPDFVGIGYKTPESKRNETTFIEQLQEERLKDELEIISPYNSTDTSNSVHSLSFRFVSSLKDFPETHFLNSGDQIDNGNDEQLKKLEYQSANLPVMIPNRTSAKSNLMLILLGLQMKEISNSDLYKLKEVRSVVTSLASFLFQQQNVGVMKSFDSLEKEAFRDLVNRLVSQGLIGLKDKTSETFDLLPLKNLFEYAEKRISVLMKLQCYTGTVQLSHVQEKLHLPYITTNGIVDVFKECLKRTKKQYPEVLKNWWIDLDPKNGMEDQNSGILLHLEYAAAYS

Variants of: B1
Conditions: with stn1_yeast STN1, P38960

Variant | effect of a mutation on the interaction
C383S;L401A | disrupting interaction strength
C383S;Y388A | disrupting interaction strength
C383A;M463A | disrupting interaction strength
P371S;C383S | disrupting interaction strength
